# From the RNAGym collection of RNA variant scans (doi:10.1093/molbev/msab373)
# B1: Azoarcus group I ribozyme (parent)
# chain: GUGCCUUGCGCCGGGAAACCACGCAAGGGAUGGUGUCAAAUUCGGCGAAACCUAAGCGCCCGCCCGGGCGUAUGGCAACGCCGAGCCAAGCUUCGGCGCCUGCGCCGAUGAAGGUGUAGAGACUAGACGGCACCCACCUAAGGCAAACGCUAUGGUGAAGGCAUAGUCCAGGGAGUGGCGAAAGUCACACAAACCGG
# Variants of: B1
# Experiment: reverse-splicing fitness (ratio to wild type); higher = more active; in vitro selection; Mg2+ level not given
# Procedure, shortened: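 An in vitro group I ribozyme library with randomized positions was T7-transcribed and gel-purified. In triplicate, 10 pmol RNA in EPPS pH 7.5 was reacted with 50 pmoles of a 30-nt RNA substrate for 1 h at 37 °C across several added MgCl2 levels (1–48 mM), then stopped with EDTA. Products were reverse transcribed from a substrate-complementary primer, PCR-amplified and sequenced (HiSeq 4000). Fitness is a variant's read proportion after selection over that before, normalised to wild type.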
row,Variant,reverse-splicing fitness
1,C82A A120G A145C C150A,0.00678
2,C82A A120G A145C C150U,0.0107
3,C82A A120G A145U C150A U176C,0.0131
4,C82A A120G A145U C150A U176G,0.00503
5,C82A A120G A145U C150A U176A,0.0108
6,C82A A120G C169A,0.0152
7,C82A A120G C169G,0.0233
8,C82A A120G C169U,0.0166
9,C82A A120G A145U C150U C169A,0.013
10,C82A A120G A145U C150U C169U,0.0133
11,C82A A120G A145U C150U C169G,0.0173
12,C82A A120G A145C C150U C169A U176G,0.00425
13,C82A A120G A145C C150U C169A U176C,0.00527
14,C82A A120G A145C C150U C169A U176A,0.0121
15,C82A A120G A145U C150U U176A,0.0108
16,C82A A120G A145U C150U U176G,0.00531
17,C82A A120G A145U C150U U176C,0.0158
18,C82A A120G A145U C169U U176A,0.02
19,C82A A120G A145U C169U U176C,0.0169
20,C82A A120G A145U C169U U176G,0.00329
21,C82A A120G C150U C169G U176A,0.0162

row,Variant,reverse-splicing fitness
1,C82A A120G C150U C169G U176C,0.0193
2,C82A A120G C150U C169G U176G,0.00468
3,C82A A120C C150G C169U U176G,0.00629
4,C82A A120C C150G C169U U176C,0.0113
5,C82A A120C C150G C169U U176A,0.00617
6,C82A A120G A145G C150U C169U,0.016
7,C82A A120G A145G C150U C169A,0.0179
8,C82A A120G A145G C150U C169G,0.0197
9,C82A A120G A145C C150G C169U,0.00806
10,C82A A120G A145C C150G C169G,0.00899
11,C82A A120G A145C C150G C169A,0.00915
12,C82A A120G C150G C169G U176C,0.00462
13,C82A A120G C150G C169G U176G,0.00432
14,C82A A120G C150G C169G U176A,0.00669
15,C82A A120C C150A C169U U176A,0.0176
16,C82A A120C C150A C169U U176C,0.0137
17,C82A A120C C150A C169U U176G,0.00644
18,C82A A120C C169U U176A,0.0172
19,C82A A120C C169U U176C,0.0151
20,C82A A120C C169U U176G,0.00416
21,C82A A120G A145G C169G U176C,0.032

row,Variant,reverse-splicing fitness
1,C82A A120G A145G C169G U176A,0.0223
2,C82A A120G A145G C169G U176G,0.00359
3,C82A A120G A145G C150U U176C,0.0178
4,C82A A120G A145G C150U U176G,0.00667
5,C82A A120G A145G C150U U176A,0.0104
6,C82A A120G A145G C150G U176G,0.00572
7,C82A A120G A145G C150G U176C,0.011
8,C82A A120G A145G C150G U176A,0.00745
9,C82A A120G C150U C169U U176C,0.0192
10,C82A A120G C150U C169U U176G,0.0068
11,C82A A120G C150U C169U U176A,0.0231
12,C82A A120G A145C C150A C169U U176G,0.00478
13,C82A A120G A145C C150A C169U U176C,0.0107
14,C82A A120G A145C C150A C169U U176A,0.0192
15,C82A A120G C169U U176C,0.0175
16,C82A A120G C169U U176G,0.00475
17,C82A A120G C169U U176A,0.0233
18,C82A A120G A145U C150G,0.00781
19,C82A A120G A145U C150U,0.0167
20,C82A A120G A145U C150A,0.00826
21,C82A A120G A145G C169U,0.0148

row,Variant,reverse-splicing fitness
1,C82A A120G A145G C169G,0.0223
2,C82A A120G A145G C169A,0.0151
3,C82A A120G C150U U176A,0.0125
4,C82A A120G C150U U176G,0.00727
5,C82A A120G C150U U176C,0.015
6,C82A A120G A145C C150G U176A,0.00476
7,C82A A120G A145C C150G U176C,0.00686
8,C82A A120G A145C C150G U176G,0.00304
9,C82A A120G A145C C150U C169U U176G,0.00407
10,C82A A120G A145C C150U C169U U176A,0.0197
11,C82A A120G A145C C150U C169U U176C,0.0106
12,C82A A120G C150A C169U U176A,0.0218
13,C82A A120G C150A C169U U176G,0.00815
14,C82A A120G C150A C169U U176C,0.0215
15,C82A A120C A145U C169U,0.0199
16,C82A A120U,0.154
17,C82A A120G,0.0258
18,C82A A120G A145U C150G C169G U176C,0.00552
19,C82A A120G A145U C150G C169G U176G,0.00378
20,C82A A120G A145U C150G C169G U176A,0.0066
21,C82A A120G C169A U176C,0.0236
